Assay in all cases: cell-based or functional assay
Experiment [1] addresses full-length subtype B consensus gp160 expressed on HEK293 cells (vector pConBgp160-opt) (HIV-1 subtype B (consensus)).
Experiment [2] concerns the target subtype C consensus gp160 protein expressed on HEK293 cells (vector pConCgp160-opt) (HIV-1 subtype C (consensus)).
Experiment [3] deals with CD19 on REH cells (human) (UniProt P15391).
Chain of UniProt P15391 (P15391 20-556): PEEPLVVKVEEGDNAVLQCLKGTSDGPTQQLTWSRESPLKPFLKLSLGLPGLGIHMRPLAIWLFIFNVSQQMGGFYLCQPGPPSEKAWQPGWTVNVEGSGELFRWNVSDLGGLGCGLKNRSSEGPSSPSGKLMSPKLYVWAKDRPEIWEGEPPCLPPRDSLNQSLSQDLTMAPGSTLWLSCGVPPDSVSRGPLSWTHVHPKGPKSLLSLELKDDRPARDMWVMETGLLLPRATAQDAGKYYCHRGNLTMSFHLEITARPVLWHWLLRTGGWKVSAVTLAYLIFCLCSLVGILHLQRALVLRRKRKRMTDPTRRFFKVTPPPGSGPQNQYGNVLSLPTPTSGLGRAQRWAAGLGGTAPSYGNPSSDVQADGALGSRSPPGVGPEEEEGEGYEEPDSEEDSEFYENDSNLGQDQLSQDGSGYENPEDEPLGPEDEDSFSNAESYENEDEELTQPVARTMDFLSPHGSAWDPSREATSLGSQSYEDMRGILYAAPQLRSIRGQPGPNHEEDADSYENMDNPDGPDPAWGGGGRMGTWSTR

Take “2G12-based anti-gp160 CAR (pFUW-2G12-CD28-CD3ζ) on NK-92MI cells (from UniProt P01732 138-182; P10747 153-220; P20963 52-164)”: the percentage of gp160+ cells killed by 2G12 CAR-NK cells, E:T 25:1 in experiment [1] turned out to be 60%.
In experiment [1], DNP-conjugated 3BNC117 (antibody) registered an IFN-γ production by anti-DNP CAR-NK cells (ELISA), adaptor 2 nM, against the isotype control of 2 fold; a percentage of gp160+ cells killed by anti-DNP CAR-NK cells, flow cytometry, 8 h, E:T 25:1, adaptor 2 nM of 50%; a percentage of gp160+ cells killed by universal CAR-NK cells of 45.5%. In experiment [2], this substance yielded a percentage of gp160+ cells killed by universal CAR-NK cells of 19.7% and a percentage of subtype C gp160+ cells lysed by anti-DNP CAR-NK cells, 8 h, E:T 25:1, adaptor 2 nM of 20%.
In experiment [1], DNP-conjugated 10-1074 (antibody) had a percentage of gp160+ cells killed by anti-DNP CAR-NK cells, flow cytometry, 8 h, E:T 25:1, adaptor 2 nM of 50%; a percentage of gp160+ cells killed by anti-DNP CAR-T cells, E/T 1:1, 48 h, adaptor 10 nM of 29%; a percentage of gp160+ cells killed by universal CAR-NK cells of 53.1%. In experiment [2], this substance displayed a percentage of gp160+ cells killed by universal CAR-NK cells of 29.8% and a percentage of subtype C gp160+ cells killed by anti-DNP CAR-NK cells, 8 h, E:T 25:1, adaptor 2 nM of 30%.
For the substance DNP-conjugated PG9 (antibody), the percentage of gp160+ cells killed by anti-DNP CAR-NK cells, flow cytometry, 8 h, E:T 25:1, adaptor 2 nM in experiment [1] is 50%. Moreover, the percentage of subtype C gp160+ cells killed by anti-DNP CAR-NK cells, 8 h, E:T 25:1, adaptor 2 nM in experiment [2] was 30%.
For the substance DNP-conjugated VRC01 (antibody), the percentage of gp160+ cells killed by anti-DNP CAR-NK cells, flow cytometry, 8 h, E:T 25:1, adaptor 2 nM in experiment [1] amounted to 28.5%. Also, the percentage of subtype C gp160+ cells lysed by anti-DNP CAR-NK cells, 8 h, E:T 25:1, adaptor 2 nM in experiment [2] worked out at 20%.
In the case of “DNP-conjugated anti-CD19 antibody (clone FMC63)”, in experiment [3], the percentage of REH cells killed by anti-DNP CAR-NK cells, flow cytometry, E:T 25:1, overnight, adaptor 50 nM stood at 59% and the percentage of REH cells remaining alive, flow cytometry, E:T 25:1, overnight, adaptor 50 nM is 41%.
In experiment [1], DNP-conjugated antibody 2G12 yielded an adaptor concentration at which IFN-γ production of CAR-NK cells reached a plateau of more than 2 nM; a percentage of gp160+ cells killed by anti-DNP CAR-NK cells, flow cytometry, 8 h, E:T 25:1, adaptor 2 nM of 50%; a percentage of gp160+ cells killed by anti-DNP CAR-T cells, E/T 1:1, 48 h, adaptor 10 nM of 34%; a percentage of gp160+ cells killed by universal (anti-DNP) CAR-NK cells with DNP-conjugated 2G12, E:T 25:1 of 50%.

These data come from patent US20230295277A1.
